Data: a protein production outcome set (Wang et al. 2014)

Experiment: label from the status in PepcDB records

Sequence	protein production
MIMNTKERSLLGSWIIWSVAYYMYYPFISIYLSRFVEESKLSLFFVVFQAVSLPLPLIGARLSKRNRILPIIIGMLVGGIGMIMLPFSRNILEATIFMSLNYFISLSLPSYYSLMSEVGEGTITRIWSLSILPSIIMPSLGGLLAQYFGLRLLFMIGGIVLATSFLPMVNSSYNSSSQSLLNFNITIRSFLPAILILPIAMEFPYIYLVVYNYFHLTKEYVGIIATSAEILGMLLTYLASKLIFRKKYLLSLSLFLFSLTSLYFLSPTIAIFFGCWEVIVPLTLEYFSSRKTVYDFALITTMQGLGWVLGYLIDYFIPNISLLLLSSSLIAFLLALMIVFTKD	failed
MIMVSGCQQQKEETPFYYGTWDEGRAPGPTDGVKSATVTFTEDEVVETEVMEGRGEVQLPFMAYKVISQSTDGSIEIQYLGPYYPLKSTLKRGENGTLIWEQNGQRKTMTRIESKTGREEKDEKSKSLEHHHHHH	not failed
MINAISPFQVQNTQNTQNATNQVNNSQKTDSSNQTSFSELLKNSISSLNESQVASDNMTNALAAGKDVNLDEVMIAAQKASISLTAATEFRNKAVEAYQEIMRMQM	not failed
MINEIGHYVLVLALGVGLIVSTLPVIGARRNDRALMDVASLGSVLMFLLVGFSFAALTHAYAVSDFSVRNVWENSHSLMPMLYKLTGVWGNHEGSMLLWLLILVFFSALVAAFGGNLPETLKANVLAVQAWISVAFLLFILLTSNPFLRLERVPAEGQDLNPILQDFGLAIHPPLLYLGYVGFSVCFSFAVAALLEGRIDAAWARWVRPWTLAAWTFLTAGISMGSYWAYYELGWGGWWFWDPVENASFMPWLAGTALLHSALVMEKREALKIWTVLLAIMTFSLSLLGTFLVRSGVLTSVHAFATDPSRGIFILGILTIFIGGAFALFAWRAPSLKAGGLFAPISREGALVLNNLILTVSTATVLIGTLYPLILETLTGEKISVGAPFFNLTFGLLMIPVLIVTPFGPMLAWKRGDLLGAFQRLYVAAAIAALAGLTLWYIENGGPVLAALGIAAGFWLIFGALTDLWYRANFGKLAFGIAFRRLKGLPRSAFGTALAHMGLGITVLGIVIVTTYETETVLEMKQGTVAEAGGYSLTFDGIRHAVGPNFTEDRGHFTVRKAGVEVADVWSSKRLYTARRMPTTEAGILTFGLSQLYVSLGDPMADGGMVVRIWWKPFILCIWGGTLFMMAGGFISLSDRRLRVGAPTRKAKPVRAAMPEAAE	failed
MINIVIPMAGAGSRFAQAGYKKPKPFIDVLGRPMICHVLDNLNMPDARFILLTRKEHFENEQETVNWIKSKYNVEFVLIDNLTEGAACTVLHAHKLIDNNTPLLIANSDQIVDMNIAEFINDSENRNLDGSVLCFKDHDTKWSYAKIDGEGLITEIREKVVISEFATVGIYYFAKGGFFVKNAIDMIIRNERVKNEFYVAPVYNFGIQEGLKFGIFNININQMHGIGTPTDLNVYIDLVQRNKLEHHHHHH	not failed
MINLAVLGLYLLIGFILKRTGKCPENSAQVLNLYVIYAALPGVIFSKVPALEFSTDLLIPVVIPWVLLAFSAVFIWLLGRAFKWPREVVGALLICVPLGNTSFFGFPMIEAFYGSDAIVYGLLYDQFGSFFGLAIYSTIVIALYREQDNKPTVASVTRQIVTFPPFIALIIALLTKSLVYPEVFQRLIDSLAVTLVPVIMIAVGFQLKFRLPKGSKTPLTIGLLTKLVLMPLITVGLLYGFGFDSTLVQVTIFESAMPPMITAGAVAIMAGLAPRLSAAMVGYGILFAFVSLPIVYQLLQLLSAH	failed
MINQRMIHMKNTKLLLAIATSAALLTGCQNTHGIDTNMAISSGLNAYKAATLSDADAKAIANQGCAEMDSGNQVASKSSKYGKRLAKIAKALGNNINGTPVNYKVYMTSDVNAWAMANGCVRVYSGLMDMMNDNEIEGVLGHELGHVALGHSLAEMKASYAIVAARDAISATSGVASQLSRSQLGDIAEGAINAKYSRDKESEADDFSFDLLKKRGISTQGLVGSFETLASLDGGRTQSMFDSHPPSTERAQHIRDRIASGKLEHHHHHH	failed
MINRDFIISFIVVTCIIYLIYVCYGKYLEKKQIYLKTLTIFLIIEVLRRIFIYGKVNNRLISGLSFIQLIFLGISVAMYGLMYFKNNLS	failed
MINRVPTNIITGFLGVGKTTAILHLLATKPAHEKWAVLVNEFGEIGIDGAIMSEQGAMIKEVPGGCLCCTAGVPMSVGINALLRQKPDRLIIEPTGLGHPKQVVATLISEQYQPYVDLKATIALMDPRHLSMDKYRSNQNFNDQLASADIVLGNKVDQCSSSDIDAFNDWVTDQTPAKTFSQLIKQGQFPIELLDMPRLVGHASTHIDSHHHHHAADEPQFQLAPQQPFLRKENRGQGYFSCGWLFGAEYQFNFDLLFQLLNDLTAERVKGVLNTDRGCYAFNVANGVVSVTEMSLDGFESRLEVIDSQLMPWSELESILLKIAGIPQALEHHHHHH	failed
